The series has as its target HuR (UniProt Q15717 1-326). The experiment in a line: fluorescence anisotropy.

One may read the Kd as the free concentration of one partner at which half of the binding sites on the other are occupied at equilibrium, for simple one-to-one binding. A higher Kd goes with lower affinity.

Sequence of HuR (Q15717 whole entry): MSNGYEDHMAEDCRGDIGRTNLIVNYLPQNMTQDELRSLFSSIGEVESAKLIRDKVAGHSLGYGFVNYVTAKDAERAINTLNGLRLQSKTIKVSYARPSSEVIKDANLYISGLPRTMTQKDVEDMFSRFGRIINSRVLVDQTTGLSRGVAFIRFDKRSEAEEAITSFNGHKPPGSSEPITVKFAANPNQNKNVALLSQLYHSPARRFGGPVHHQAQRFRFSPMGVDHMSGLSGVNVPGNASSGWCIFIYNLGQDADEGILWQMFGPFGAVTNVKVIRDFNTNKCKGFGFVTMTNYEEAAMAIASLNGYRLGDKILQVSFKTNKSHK

B1: miR-16 (mature, 5'TMR-labeled) (ssRNA)
RNA: UAGCAGCACGUAAAUAUUGGCG
Regarding B1, the dissociation constant (Kd) worked out at 120 ± 9 nM.
